Experimental data: US8821943B2, “Methods and compositions for targeted delivery of therapeutic agents” (Board of Regents of the University of Nebraska, priority 2006, dated 2014)

Test system: ARPE-19 cells
Test: Nanoparticle uptake by human retinal pigment epithelial cells
Format: cell-based
Settings: 1 ml of 100 μg/ml suspension in serum free medium
Experimental: A study was performed to examine the effect of targeting moieties on biodegradable and non-biodegradable carrier particles and their uptake in ocular cells. The biodegradable and non-biodegradable targeted carrier particles of the preceding Example were used. Uptake of nanoparticles by human retinal pigment epithelial cells (ARPE-19 cell line) was quantified by measuring fluorescence in cell lysate obtained after incubation of targeted or untargeted (unconjugated) nanoparticles with ARPE-19 cell monolayers.
ARPE-19 cells were obtained from American Type Culture Collection (ATCC, Manassas, Va.). The cells were maintained in culture according to supplier's recommendation. All studies were conducted using confluent cells of passages 20-30. Dulbecco's modified Eagle's medium (DMEM-F/12), fetal bovine serum, penicillin-streptomycin and L-glutamine were obtained from Gibco-BRL (Invitrogen Inc., Carlsbad, Calif.). Cell culture flasks (T-75 cm^2) and plates were purchased from Corning Inc., (Corning, N.Y.). To investigate the uptake of particles, ARPE-19 cells between 20-30 passages were cultured in 24-well plates until confluency. […] Fluorescence intensity of the cell lysates was determined at an excitation and emission wavelength of 505 and 515 nm, respectively, for FluoSpheres®. […]

## Transferrin-AS: transferrin-aldehyde sulphate-conjugated polystyrene nanoparticles
  percentage uptake at 3 h by ARPE-19 cells: 12.2±0.26%
